Experimental data taken from the Human Domainome abundance scans (Beltran et al. 2025).
± gives the uncertainty stated by the source.

test: abundance fitness (aPCA) (normalised: wild type 0, dead -1); higher = more abundant; growth selection in yeast, the domain comes from the species named; conditions: Homo sapiens

“Scaffold attachment factor B2 K43N, Q14151” and “Scaffold attachment factor B2 K53Y, Q14151” are within error of each other in abundance fitness: -0.367 ± 0.2 for the first, -0.054 ± 0.43 for the second.

Going from “Scaffold attachment factor B2 I36V, Q14151” to “Scaffold attachment factor B2 E32H, Q14151”, the abundance fitness falls from -0.002 ± 0.091 to -0.52 ± 0.23.

Compared with “Scaffold attachment factor B2 V55W, Q14151”, “Scaffold attachment factor B2 M57C, Q14151” is higher in abundance fitness: -0.811 ± 0.1 for the first, -0.504 ± 0.12 for the second.

“Scaffold attachment factor B2 D37P, Q14151” and “Scaffold attachment factor B2 R29I, Q14151” are within error of each other in abundance fitness: -0.463 ± 0.14 for the first, -0.211 ± 0.15 for the second.

“Scaffold attachment factor B2 D70C, Q14151” and “Scaffold attachment factor B2 Q69S, Q14151” are within error of each other in abundance fitness: -0.037 ± 0.12 for the first, -0.077 ± 0.11 for the second.

“Scaffold attachment factor B2 K61H, Q14151” and “Scaffold attachment factor B2 S54D, Q14151” are within error of each other in abundance fitness: -0.128 ± 0.11 for the first, -0.1 ± 0.14 for the second.

First: Scaffold attachment factor B2 A63V, Q14151
Second: Scaffold attachment factor B2 M57W, Q14151
The abundance fitness of the first is higher: -0.175 ± 0.11 for the first, -0.791 ± 0.11 for the second.

Going from “Scaffold attachment factor B2 K62S, Q14151” to “Scaffold attachment factor B2 D48K, Q14151”, the abundance fitness falls from -0.125 ± 0.095 to -0.358 ± 0.084.

Compared with “Scaffold attachment factor B2 R45G, Q14151”, “Scaffold attachment factor B2 R59G, Q14151” is higher in abundance fitness: -0.486 ± 0.08 for the first, -0.23 ± 0.11 for the second.

“Scaffold attachment factor B2 E32A, Q14151” and “Scaffold attachment factor B2 V64Y, Q14151” are within error of each other in abundance fitness: -0.445 ± 0.11 for the first, -0.274 ± 0.31 for the second.

“Scaffold attachment factor B2 A40W, Q14151” and “Scaffold attachment factor B2 K62D, Q14151” are within error of each other in abundance fitness: -0.135 ± 0.31 for the first, -0.123 ± 0.13 for the second.

Going from “Scaffold attachment factor B2 V55P, Q14151” to “Scaffold attachment factor B2 S54V, Q14151”, the abundance fitness rises from -0.643 ± 0.13 to -0.163 ± 0.078.

“Scaffold attachment factor B2 I36K, Q14151” and “Scaffold attachment factor B2 R29D, Q14151” are within error of each other in abundance fitness: 0.04 ± 0.089 for the first, 0.089 ± 0.093 for the second.

Compared with “Scaffold attachment factor B2 V35Q, Q14151”, “Scaffold attachment factor B2 D37N, Q14151” is lower in abundance fitness: -0.431 ± 0.1 for the first, -0.883 ± 0.23 for the second.

First: Scaffold attachment factor B2 E67L, Q14151
Second: Tyrosine-protein kinase Lck H70Y, P06239
The abundance fitness of the first is lower: -0.495 ± 0.094 for the first, -0.029 ± 0.12 for the second.

“Scaffold attachment factor B2 L33H, Q14151” and “Scaffold attachment factor B2 E32C, Q14151” are within error of each other in abundance fitness: -0.46 ± 0.25 for the first, -0.33 ± 0.12 for the second.

Compared with “Scaffold attachment factor B2 L56V, Q14151”, “Scaffold attachment factor B2 R45N, Q14151” is lower in abundance fitness: -0.369 ± 0.082 for the first, -0.99 ± 0.24 for the second.

Going from “Scaffold attachment factor B2 K43T, Q14151” to “Scaffold attachment factor B2 G51K, Q14151”, the abundance fitness falls from -0.217 ± 0.1 to -0.786 ± 0.15.

Going from “Scaffold attachment factor B2 G68P, Q14151” to “Scaffold attachment factor B2 R45W, Q14151”, the abundance fitness falls from -0.19 ± 0.13 to -0.709 ± 0.085.

First: Scaffold attachment factor B2 E66L, Q14151
Second: Scaffold attachment factor B2 K43A, Q14151
The abundance fitness of the first is lower: -0.247 ± 0.1 for the first, 0.022 ± 0.097 for the second.

“Scaffold attachment factor B2 E66T, Q14151” and “Scaffold attachment factor B2 E66W, Q14151” are within error of each other in abundance fitness: -0.301 ± 0.21 for the first, -0.365 ± 0.12 for the second.

“Scaffold attachment factor B2 E32W, Q14151” and “Scaffold attachment factor B2 G51N, Q14151” are within error of each other in abundance fitness: -0.621 ± 0.09 for the first, -0.833 ± 0.25 for the second.

First: Scaffold attachment factor B2 V55E, Q14151
Second: Scaffold attachment factor B2 L38F, Q14151
The abundance fitness of the first is higher: 0.086 ± 0.097 for the first, -0.455 ± 0.2 for the second.

Going from “Scaffold attachment factor B2 K43P, Q14151” to “Scaffold attachment factor B2 S31D, Q14151”, the abundance fitness rises from -0.486 ± 0.12 to -0.086 ± 0.12.

First: Scaffold attachment factor B2 L30G, Q14151
Second: Scaffold attachment factor B2 L38V, Q14151
The abundance fitness of the first is higher: -0.281 ± 0.084 for the first, -0.863 ± 0.076 for the second.

Compared with “Scaffold attachment factor B2 L42S, Q14151”, “Scaffold attachment factor B2 S54H, Q14151” is higher in abundance fitness: -0.697 ± 0.089 for the first, -0.191 ± 0.18 for the second.

“Scaffold attachment factor B2 V35T, Q14151” and “Scaffold attachment factor B2 R28H, Q14151” are within error of each other in abundance fitness: -0.075 ± 0.084 for the first, 0.063 ± 0.2 for the second.

“Scaffold attachment factor B2 S31F, Q14151” showed an abundance fitness of -0.488 ± 0.16.
